Assay results reported in patent US10766960 (dated 2020).
Residue numbers refer to the chain shown, from its start.

How the values were obtained:
Experiment in all cases: SPR
FcgRIIa R = biological target: T1, FcgRIIa R (human, UniProt P12318)
T1 chain: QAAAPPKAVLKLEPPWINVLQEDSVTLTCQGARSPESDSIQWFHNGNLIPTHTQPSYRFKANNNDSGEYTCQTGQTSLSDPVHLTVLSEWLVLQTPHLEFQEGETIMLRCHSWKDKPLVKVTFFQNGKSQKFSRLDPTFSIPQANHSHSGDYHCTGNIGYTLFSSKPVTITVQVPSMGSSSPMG

FcgRIIIa V = FcgRIIIa V (human, UniProt P08637)
FcgRIIa H = biological target: T2, FcgRIIa H (human, UniProt P12318)
T2 chain: T1 chain with R134H

FcgRIIb = biological target: T3, FcgRIIb (human, UniProt P31994)
T3 chain: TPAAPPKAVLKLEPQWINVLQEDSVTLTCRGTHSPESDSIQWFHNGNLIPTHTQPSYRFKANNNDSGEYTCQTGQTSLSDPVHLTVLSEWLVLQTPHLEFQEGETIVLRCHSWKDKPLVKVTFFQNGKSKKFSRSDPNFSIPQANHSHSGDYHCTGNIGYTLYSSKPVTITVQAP

FcgRIa = biological target: T4, FcgRIa (human, UniProt P12314)
T4 chain: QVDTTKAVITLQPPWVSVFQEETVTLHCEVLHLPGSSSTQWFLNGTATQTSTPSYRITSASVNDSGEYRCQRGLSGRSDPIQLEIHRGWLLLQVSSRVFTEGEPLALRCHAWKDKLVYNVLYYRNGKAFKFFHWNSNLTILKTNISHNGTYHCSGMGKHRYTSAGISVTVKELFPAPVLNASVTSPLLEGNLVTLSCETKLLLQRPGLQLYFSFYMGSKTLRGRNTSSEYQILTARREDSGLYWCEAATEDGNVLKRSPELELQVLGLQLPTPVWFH

FcgRIIIa F = FcgRIIIa F (human, UniProt P08637)
FcgRIIIa F, sequence (P08637 17-208): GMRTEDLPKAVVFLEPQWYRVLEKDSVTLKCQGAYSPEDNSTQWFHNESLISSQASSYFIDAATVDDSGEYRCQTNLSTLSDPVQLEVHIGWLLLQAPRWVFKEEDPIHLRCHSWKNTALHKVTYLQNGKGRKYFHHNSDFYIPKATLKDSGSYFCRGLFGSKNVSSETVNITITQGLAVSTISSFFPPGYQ

FcgRIIIa V, sequence (P08637 17-208 F176V): as the sequence (P08637 17-208) above, with F160V counted along it

B1: H240-FA009/H240-FB052/L73-k0 (antibody)
chain 1: QDQLVQSGAEVKKPGASVKVSCKASGFNIKDTYIQWVRQAPGQGLEWMGRIDPLRKQTKYREKFEGRVTITADTSTNTAYMELSSLRSEDTAVYYCVRSGREFDYWGQGTLVTVSSASTKGPSVFPLAPSSKSTSGGTAALGCLVKDYFPEPVTVSWNSGALTSGVHTFPAVLQSSGLYSLSSVVTVPSSSLGTKTYICNVNHKPSNTKVDKKVEPKSCDKTHTCPPCPAPEYYWGPSVFLFPPKPKDTLMISRTPEVTCVVVDVSDEEPEVKFNWYVDGVEVHNAKTKPREEQYNATYRVVSVLTVLHQDWLNGKEYKCKVSNKALPAPIEKTISKAKGQPREPQVYTLPPSRKEMTKNQVSLTCLVKGFYPSDIAVEWESNGQPENNYKTTPPVLDSDGSFFLYSKLTVDKSRWQQGNVFSCSVMHEALHNRYTQKSLSLSP
chain 2: QDQLVQSGAEVKKPGASVKVSCKASGFNIKDTYIQWVRQAPGQGLEWMGRIDPLRKQTKYREKFEGRVTITADTSTNTAYMELSSLRSEDTAVYYCVRSGREFDYWGQGTLVTVSSASTKGPSVFPLAPSSKSTSGGTAALGCLVKDYFPEPVTVSWNSGALTSGVHTFPAVLQSSGLYSLSSVVTVPSSSLGTQTYICNVNHKPSNTKVDKTVEPKSCDKTHTCPPCPAPELLGGPSVFLFPPKPKDTLMISRTPEVTCVVVDVSHEEPEVQFNWYVDGVEVHNAKTKPREEQYNSTYRVVSVLTVLHQDWLNGKEYKCKVSNDALPMPIEETISKAKGQPREPQVYTLPPSREEMTKNQVSLTCLVKGFYPSDIAVEWESNGQPENNYKTTPPVLDSDGSFFLYSKLTVDKSRWQQGNVFSCSVMHEALHNHYTQESLSLSP
chain 3: DIQMTQSPSSLSASVGDRVTITCRASQDIHKYIAWYQQKPGQAPRLLIQYTSTLQPGVPSRFSGSGSGTDYTFTISSLQPEDIATYYCLQYEQLRTFGGGTKVEIKRTVAAPSVFIFPPSDEQLKSGTASVVCLLNNFYPREAKVQWKVDNALQSGNSQESVTEQDSKDSTYSLSSTLTLSKADYEKHKVYACEVTHQGLSSPVTKSFNRGEC
Kd (FcgRIIa R): 270 nM | Kd (FcgRIIIa V): 0.89 nM | Kd (FcgRIIa H): 72 nM | Kd (FcgRIIb): 1400 nM | Kd (FcgRIa): 0.051 nM | Kd (FcgRIIIa F): 4.3 nM

B2: H240-FA009/H240-FB017/L73-k0 (antibody)
chain 1: B1 chain 1
chain 2: B1 chain 2 with G136E, N202D, T213K
chain 3: B1 chain 3
Kd (FcgRIIa R): 230 nM | Kd (FcgRIIIa V): 0.84 nM | Kd (FcgRIIa H): 61 nM | Kd (FcgRIIb): 1400 nM | Kd (FcgRIa): 0.11 nM | Kd (FcgRIIIa F): 3 nM

B3: H240-FA030/H240-FB083/L73-k0 (antibody)
chain 1: B1 chain 1 with I198T, E271K
chain 2: B1 chain 2 with G136E, G137S, K146E, S191N, L192F, I198T, N202D, K287E
chain 3: B1 chain 3
Kd (FcgRIIa R): 280 nM | Kd (FcgRIIIa V): 1.2 nM | Kd (FcgRIIa H): 82 nM | Kd (FcgRIIb): 1500 nM | Kd (FcgRIa): 0.081 nM | Kd (FcgRIIIa F): 3.9 nM

B4: H240-FA030/H240-FB065/L73-k0 (antibody)
chain 1: B1 chain 1 with I198T, E271K
chain 2: B1 chain 2 with G136E, G137S, S191N, L192F, I198T, N202D, K287E
chain 3: B1 chain 3
Kd (FcgRIIa R): 340 nM | Kd (FcgRIIIa V): 1.1 nM | Kd (FcgRIIa H): 99 nM | Kd (FcgRIIb): 2400 nM | Kd (FcgRIa): 0.1 nM | Kd (FcgRIIIa F): 4.6 nM

B5: H240-FA020/H240-FB082/L73-k0 (antibody)
chain 1: B1 chain 1 with I198T, M357K
chain 2: B1 chain 2 with G137E, K146E, T213K, K287E, N383E
chain 3: B1 chain 3
Kd (FcgRIIa R): 270 nM | Kd (FcgRIIIa V): 1.1 nM | Kd (FcgRIIa H): 69 nM | Kd (FcgRIIb): 1200 nM | Kd (FcgRIa): 0.079 nM | Kd (FcgRIIIa F): 3.4 nM

B6: H240-FA009/H240-FB021/L73-k0 (antibody)
chain 1: B1 chain 1
chain 2: B1 chain 2 with T213K, K287E
chain 3: B1 chain 3
Kd (FcgRIIa R): 280 nM | Kd (FcgRIIIa V): 0.78 nM | Kd (FcgRIIa H): 70 nM | Kd (FcgRIIb): 2200 nM | Kd (FcgRIa): 0.051 nM | Kd (FcgRIIIa F): 3.7 nM

B7: H240-FA012/H240-FB001/L73-k0 (antibody)
chain 1: B1 chain 1 with E271K
chain 2: B1 chain 2 with T213K
chain 3: B1 chain 3
Kd (FcgRIIa R): 350 nM | Kd (FcgRIIIa V): 1.5 nM | Kd (FcgRIIa H): 110 nM | Kd (FcgRIIb): 1700 nM | Kd (FcgRIa): 0.076 nM | Kd (FcgRIIIa F): 6.3 nM
